Data on four molecules can be found in patent US20220143094A1 (Chugai, published 2022).

The chains are these.
B1: SKA0009H-F760mnN17/SKA0009Ls-k0MT//TR01H113-F760mnP17/L0011-k0a (bispecific antibody, human IgG1, kappa, N297A)
heavy 1: QSVEESGGRLVTPGTSLTLTCTVSGIDLSSYGMGWVRQAPGMGLEYIGIIYAAGRTYYASWVKGRFIISKTSTTVDLEMTSLTTEDTATYFCARHGSWYAGMDLWGPGTLVTVSSASTKGPSVFPLAPSSKSTSGGTAALGCLVKDYFPEPVTVSWNSGALTSGVHTFPAVLQSSGLYSLSSVVTVPSSSLGTQTYICNVNHKPSNTKVDKKVEPKSCDKTHTCPPCPAPELRGGPKVFLFPPKPKDTLMISRTPEVTCVVVDVSHEDPEVKFNWYVDGVEVHNAKTKPREEQYASTYRVVSVLTVLHQDWLNGKEYKCKVSNKALPAPIEKTISKAKGQPREPQVYTLPPSREEMTKNQVSLTCLVKGFYPSDIAVEWESNGQPENNYKTTPPYLDSDGSFFLYSKLTVDKSRWQQGNVFSCSVMHEALHNHYTQESLSLSP
light 1: AIEMTQTPSPVSAAVGGTVSINCQASEDIENYFAWYQQKPGQPPKLLIYDASELASGVPSRFSGSGSGTDFTLTISGVQSDDAATYYCQHADYAASSENTFGGGTEVVVKRTVAAPSVFIFPPSDEQLKSGTASVVCLLNNFYPREAKVQWKVDNALQSGNSQESVTEQDSKDSTYSLSSTLTLSKADYEKHKVYACEVTHQGLSSPVTKSFNRGEC
heavy 2: QVQLVESGGGVVQPGGSLRLSCAASGFTFSNAWMHWVRQAPGKGLEWVAQIKDKSQNYATYVAESVKGRFTISRADSKNSIYLQMNSLKTEDTAVYYCRYVHYAAGYGVDIWGQGTTVTVSSASTKGPSVFPLAPSSKSTSGGTAALGCLVKDYFPEPVTVSWNSGALTSGVHTFPAVLQSSGLYSLSSVVTVPSSSLGTQTYICNVNHKPSNTKVDKKVEPKSCDKTHTCPPCPAPELRGGPKVFLFPPKPKDTLMISRTPEVTCVVVDVSHEDPEVKFNWYVDGVEVHNAKTKPREEQYASTYRVVSVLTVLHQDWLNGKEYKCKVSNKALPAPIEKTISKAKGQPREPQVYTLPPSRKEMTKNQVSLTCLVKGFYPSDIAVEWESNGQPENNYKTTPPYLDSDGSFFLYSKLTVDKSRWQQGNVFSCSVMHEALHNHYTQKSLSLSP
light 2: DIVMTQSPLSLPVTPGEPASISCRSSQPLVHSNRNTYLHWYQQKPGQAPRLLIYKVSNRFSGVPDRFSGSGSGTDFTLKISRVEAEDVGVYYCGQGTQVPYTFGQGTKLEIKRTVAAPSVFIFPPSDEQLKSGTASVVCLLNNFYPREAKVQWKVDNALQSGNSQESVTEQDSKDSTYSLSSTLTLSKADYEKHKVYACEVTHQGLSSPVTKSFNRGEC
notes: Bispecific IgG made by mixing two homomers under 2-MEA reduction; also called anti-silent Fc antibody; silent Fc×CD3
B2: H0000-G1T3GK/GL4-k0a (antibody, human IgG1, kappa)
heavy: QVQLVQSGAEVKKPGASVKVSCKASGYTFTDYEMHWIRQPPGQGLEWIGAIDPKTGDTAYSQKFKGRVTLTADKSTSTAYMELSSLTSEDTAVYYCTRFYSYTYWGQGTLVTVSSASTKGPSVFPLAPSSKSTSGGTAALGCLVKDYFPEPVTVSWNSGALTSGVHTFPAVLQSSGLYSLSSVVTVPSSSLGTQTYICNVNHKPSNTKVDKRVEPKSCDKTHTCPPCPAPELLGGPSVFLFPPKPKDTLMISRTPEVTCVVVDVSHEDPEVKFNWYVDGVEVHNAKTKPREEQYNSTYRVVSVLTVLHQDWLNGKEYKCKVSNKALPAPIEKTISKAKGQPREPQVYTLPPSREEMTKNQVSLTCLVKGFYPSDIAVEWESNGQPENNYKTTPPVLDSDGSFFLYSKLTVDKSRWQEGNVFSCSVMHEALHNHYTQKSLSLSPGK
light: B1 light 2 with P28S, G94S, G96N, Q98H, Y101P
notes: Control antigen antibody with the same variable regions as m1 and a human IgG1 constant region carrying C-terminal GK; also called anti-GPC3 antibody with C-terminal addition of Gly-Lys; anti-GPC3 antibody having IgG1 constant region having C-terminal GK
B3: H0000-SG115/GL4-k0a (antibody)
heavy: QVQLVQSGAEVKKPGASVKVSCKASGYTFTDYEMHWIRQPPGQGLEWIGAIDPKTGDTAYSQKFKGRVTLTADKSTSTAYMELSSLTSEDTAVYYCTRFYSYTYWGQGTLVTVSSASTKGPSVFPLAPSSKSTSGGTAALGCLVKDYFPEPVTVSWNSGALTSGVHTFPAVLQSSGLYSLSSVVTVPSSSLGTQTYICNVNHKPSNTKVDKKVEPKSCDKTHTCPPCPAPELRRGPKVFLFPPKPKDTLMISRTPEVTCVVVDVSHEDPEVKFNWYVDGVEVHNAKTKPREEQYNSTYRVVSVLTVLHQDWLNGKEYKCKVSNKGLPSSIEKTISKAKGQPREPQVYTLPPSREEMTKNQVSLTCLVKGFYPSDIAVEWESNGQPENNYKTTPPVLDSDGSFFLYSKLTVDKSRWQQGNVFSCSVLHEALHAHYTRKELSLSP
light: B1 light 2 with P28S, G94S, G96N, Q98H, Y101P
notes: Anti-GPC3 antibody with the SG115 constant region, which is both silent Fc and delta GK-Fc; also called anti-GPC3 silent Fc antibody; anti-GPC3 silent Fc and anti-delta GK-Fc antibody
B4: YG55H-F760mnN17GK/YG55L-k0//TR01H113-F760mnP17GK/L0011-k0a (bispecific antibody, human IgG1, kappa, N297A)
heavy 1: QSLEESGGRLVTPGGSLTLTCTVSGIDLSNYAVGWVRQAPGKGLEYIGIIYASGSAYYASWAKGRFTISKTSSTTVDLKVTSLTTEDTATYFCARGYGRAFRIWGPGTLVTVSSASTKGPSVFPLAPSSKSTSGGTAALGCLVKDYFPEPVTVSWNSGALTSGVHTFPAVLQSSGLYSLSSVVTVPSSSLGTQTYICNVNHKPSNTKVDKKVEPKSCDKTHTCPPCPAPELRGGPKVFLFPPKPKDTLMISRTPEVTCVVVDVSHEDPEVKFNWYVDGVEVHNAKTKPREEQYASTYRVVSVLTVLHQDWLNGKEYKCKVSNKALPAPIEKTISKAKGQPREPQVYTLPPSREEMTKNQVSLTCLVKGFYPSDIAVEWESNGQPENNYKTTPPYLDSDGSFFLYSKLTVDKSRWQQGNVFSCSVMHEALHNHYTQESLSLSPGK
light 1: AVLTQTPSPVSAAVGGTVTISCQASQSVYNNNFLSWYQQKPGQRPKLLIYDASTLESGVPSRFSGSGSGTQFTLTISSVQCDDAATYYCLGGYDDHDNAFGGGTEVVVKRTVAAPSVFIFPPSDEQLKSGTASVVCLLNNFYPREAKVQWKVDNALQSGNSQESVTEQDSKDSTYSLSSTLTLSKADYEKHKVYACEVTHQGLSSPVTKSFNRGEC
heavy 2: QVQLVESGGGVVQPGGSLRLSCAASGFTFSNAWMHWVRQAPGKGLEWVAQIKDKSQNYATYVAESVKGRFTISRADSKNSIYLQMNSLKTEDTAVYYCRYVHYAAGYGVDIWGQGTTVTVSSASTKGPSVFPLAPSSKSTSGGTAALGCLVKDYFPEPVTVSWNSGALTSGVHTFPAVLQSSGLYSLSSVVTVPSSSLGTQTYICNVNHKPSNTKVDKKVEPKSCDKTHTCPPCPAPELRGGPKVFLFPPKPKDTLMISRTPEVTCVVVDVSHEDPEVKFNWYVDGVEVHNAKTKPREEQYASTYRVVSVLTVLHQDWLNGKEYKCKVSNKALPAPIEKTISKAKGQPREPQVYTLPPSRKEMTKNQVSLTCLVKGFYPSDIAVEWESNGQPENNYKTTPPYLDSDGSFFLYSKLTVDKSRWQQGNVFSCSVMHEALHNHYTQKSLSLSPGK
light 2: B1 light 2
notes: Bispecific IgG made by mixing two homomers under 2-MEA reduction; also called anti-delta GK-Fc antibody; delta GK-Fc×CD3

Substitutions are numbered along the chain they refer to.

The experiment “H0000-SG115/GL4-k0a” has as its target B3. In words: SPR (Biacore T200), multi-cycle kinetics; anti-GPC3 antibody captured on engineered GPC3 CM4 chip, bispecific antibody as analyte at 15.6-1000 nM. A general note: In SPR one partner is held on a chip, and binding of the other changes the refractive index at the surface.
The target in the experiment “H0000-G1T3GK/GL4-k0a” is B2. The description is as above.
The target of another experiment is engineered GPC3 (Homo sapiens (Human), UniProt P51654 25-563). Kind of experiment: SPR (Biacore T200); capture of the antibody on an engineered GPC3 CM4 chip.

By Kd is commonly meant the concentration at which binding is half-saturated. Usually koff stands for a measure of how fast the partners let go of each other. A lower koff goes with a long-lived complex. In general, kon refers to a measure of how fast the partners come together. Read a low kon as slow association.

Sequence of engineered GPC3 (P51654 other isoform, or with tags, fused parts or gaps limits assumed): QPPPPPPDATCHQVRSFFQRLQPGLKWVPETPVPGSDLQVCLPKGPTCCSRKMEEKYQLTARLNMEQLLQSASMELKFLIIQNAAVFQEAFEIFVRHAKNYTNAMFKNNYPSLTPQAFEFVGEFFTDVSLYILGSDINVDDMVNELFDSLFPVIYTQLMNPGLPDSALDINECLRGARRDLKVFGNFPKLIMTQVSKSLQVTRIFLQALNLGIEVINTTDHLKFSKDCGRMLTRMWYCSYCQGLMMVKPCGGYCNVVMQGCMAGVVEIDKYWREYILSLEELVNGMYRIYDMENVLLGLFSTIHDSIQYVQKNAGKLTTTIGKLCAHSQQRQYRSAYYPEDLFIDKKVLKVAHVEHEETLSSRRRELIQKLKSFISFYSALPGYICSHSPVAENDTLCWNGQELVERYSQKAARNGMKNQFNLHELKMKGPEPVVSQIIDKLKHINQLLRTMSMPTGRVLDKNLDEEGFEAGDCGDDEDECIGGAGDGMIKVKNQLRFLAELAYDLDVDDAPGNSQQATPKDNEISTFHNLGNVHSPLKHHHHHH

On to B1, for which, in the experiment with H0000-SG115/GL4-k0a, the equilibrium dissociation constant (Kd) is less than 0.26 nM, the off-rate (koff) is less than 1e-05 s⁻¹ and the kon is 38900 M⁻¹ s⁻¹. Further, the kon with H0000-G1T3GK/GL4-k0a stood at 2610 M⁻¹ s⁻¹.

For B2, the binding result with engineered GPC3 was “binds”.

In the case of B3, in the experiment with engineered GPC3, the binding result is listed as “binds”.

In the experiment with H0000-SG115/GL4-k0a, B4 returned a dissociation constant (Kd) of 41.7 nM, a koff of 0.00348 s⁻¹ and a kon of 83500 M⁻¹ s⁻¹.
